This note sets out measurements from the supplement of paper PMC9170038.

This data set deals with MS2 coat protein. Description: apparent KD of MS2 coat protein; designed switch direction (-1 OFF switch, 1 ON switch): -1; higher = weaker reporter binding. The method, boiled down: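 On Illumina chips, designed RNA switches with common flanks were made by stalled E. coli RNA polymerase. Titrations with SNAP-549-labelled MS2 coat protein, doubling from 0.7 or 1.5 nM to 3 µM, were done with no input, with 200 uM small-molecule ligand, or with an oligonucleotide input. Apparent KD is the median per design over clusters, from curve fits of normalised cluster fluorescence.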

The mark [1] stands for this setting: Eterna round: R95, input ligand: FMN 200 uM.
Where [2] appears, read: Eterna round: R95, input ligand: microRNA oligo, concentration not stated.
Where [3] appears, read: Eterna round: R95, input ligand: none.
The mark [4] stands for this setting: input ligand: microRNA oligo, concentration not stated.

As for “ACAAGCUUAAUCAGUAUGAACAUGAGGAUCACCCAUGUAAAAGGGAAUACUAUUGGGUUUUUUAAAGCUCGUCUUAU [JR_STOV1_Sub017] (Eterna round: R97, puzzle: Sensor, turn-off variant 1)”, the “apparent KD of MS2 coat protein” value was found to be 23 nM (input ligand: FMN 200 uM) and 21.8 nM (input ligand: none).
In the same order, the values of “ACAAGCUUGUAAUGAUUGAACAUGAGGAUCACCCAUGUAAAUGGAAGAACCAACUUGAUAUGAUUUACUCGUCUUAU [JR_STOV1_Sub011] (Eterna round: R97, puzzle: Sensor, turn-off variant 1)” are 676 nM and 546 nM.
On to “ACAAGCUUUUUGUUCGUCUUAUAAUAAUAAAUAAAUAUAACAUGAGGAUCACCCAUGUUAAGAAGACGGCCUCAUGU [Sesor Array 21 - Jieux - Sensor v3, turn-off variant 2] (puzzle: Sensor v3, turn-off variant 2)”, for which the “apparent KD of MS2 coat protein” value came to 82.2 nM under setting [1], 174 nM under setting [2] and 71.8 nM under setting [3].
The like results for “ACAAGCUUUUUGUUCGUCUUAUACACUCCUAAUAAGACAACAUGAGGAUCACCCAUGUAACAAAUAAGAACUCAUGU [Sesor Array 5 - Jieux - Sensor v3, turn-off variant 2] (puzzle: Sensor v3, turn-off variant 2)” were, in that order, 75 nM, 293 nM and 90.2 nM.
With “ACAAGCUUUUUGUUUGUCUACAUGAGGAUCACCCAUGUGGGUGUCAGUCAUGCUGGCGUGUGGUGUCGUGGCAGCGC [Sensor V1 S1] (Eterna round: R97, puzzle: Sensor, turn-off variant 1)”, the “apparent KD of MS2 coat protein” value (input ligand: FMN 200 uM) is 978 nM and the “apparent KD of MS2 coat protein” value (input ligand: none) stood at 1610 nM.
Consider “ACACUGCGAGGAUAUACAUGAGGAUCACCCAUGUUAAGGAAGUCAAGGUUAAUUUAAGGUAGAAGGCGCUUAUU [JR_Ex3_Sub013] (Eterna round: R97, puzzle: Exclusion 3)”, for which the “apparent KD of MS2 coat protein” value (input ligand: FMN 200 uM) was determined as 46.2 nM and the “apparent KD of MS2 coat protein” value (input ligand: none) stood at 39.7 nM.
In the same order, the values of “ACACUGCGAGGAUAUACAUGAGGAUCACCCAUGUUUCGGUAGUCAAGGUUAAUUUAAGGUAGAAGGCGCGUAUU [JR_Ex3_Sub010] (Eterna round: R97, puzzle: Exclusion 3)” are 63.8 nM and 33.2 nM.
As for “ACAGCGUGAGGAUAUACAUGAGGAUCACCCAUGUGUGGCAGGUUAUCCUGUCAUAAGUGUAGAAGGCACGCUGU [Exclusion 3 - Oddities v.6 ( A small slide from ms2 to fmn)] (puzzle: Exclusion 3)”, the “apparent KD of MS2 coat protein” value under setting [2] came out at 37.2 nM.
On the same count and under the same terms, for “ACAGCGUGAGGAUAUACAUGAGGAUCACCCAUGUGUGGCAGGUUAUCCUGUCAUGAGUGUAGAAGGCACGCUGU [Exclusion 3 - Oddities v.7 ( A small slide from ms2 to fmn)] (puzzle: Exclusion 3)” the value was 26.2 nM.
“ACAUCGCCAGAAGUAGGUGACAUGAGGAUCACCCAUGUAGGCUAUUUUGCUCGUUUUAUUUCCACCCUAUUUGCUCC [Eternabot (L1) Solution 13] (Eterna round: R97, puzzle: Sensor, turn-off variant 1)”: the “apparent KD of MS2 coat protein” value is, setting by setting: (input ligand: FMN 200 uM) 146 nM; (input ligand: none) 190 nM.
For the sequence “ACAUGACAGCUAGGAUAUAAAUGACAUGAGGAUCACCCAUGUUGUCCCAUGUUGACGAUCACCGAUUAGAAGGAGCCACCCAUG [Ex NG2 #1] (Eterna round: R96, puzzle: Exclusion NG 2)”, the “apparent KD of MS2 coat protein” value (input ligand: FMN 200 uM) amounted to 106 nM, the “apparent KD of MS2 coat protein” value under setting [4] came out at 110 nM and the “apparent KD of MS2 coat protein” value (input ligand: none) came to 89 nM.
The like results for “ACAUGACUGCUAGGAUAUAGAUGACAUGAGGAUCACCCAUGUUAUCCCAUGUUGACGGAAACCGACUAGAAGGAGCAGCAUAUG [Ex NG2 #9] (Eterna round: R96, puzzle: Exclusion NG 2)” were, in that order, 118 nM, 43.5 nM and 45.3 nM.
For “ACAUGACUGCUAGGAUAUAGAUGACAUGAGGAUCACCCAUGUUGUCCCAUGUUUAUGGAAACGGACUAGAAGGAGCAGCAUAUG [Ex NG2 #12] (Eterna round: R96, puzzle: Exclusion NG 2)”, the “apparent KD of MS2 coat protein” value is 25.7 nM (input ligand: FMN 200 uM), 24.8 nM under setting [4] and 30.2 nM (input ligand: none).
In the case of “ACAUGAGGAUCACCCAUGUAAACAUAAUGGCUCAUGUAGAGUCAGGAUAUGCGUGGCGAACAACCGCAGAAGGGACAAGACUGG [Deportation 27 - Jieux - Exclusion NG 3] (Eterna round: R96, puzzle: Exclusion NG 3)”, the “apparent KD of MS2 coat protein” value by setting is: (input ligand: FMN 200 uM) 25.7 nM; under setting [4], 20.4 nM; (input ligand: none) 29 nM.
With “ACAUGAGGAUCACCCAUGUAAUCAUAAUGGCUGAUGUAGAGUCAGGAUAUGUGUGGCUUUCUAUCGCAGAAGGGACAAGACUGG [Deportation 34 - Jieux - Exclusion NG 3] (Eterna round: R96, puzzle: Exclusion NG 3)”, the “apparent KD of MS2 coat protein” value (input ligand: FMN 200 uM) was found to be 26.3 nM, the “apparent KD of MS2 coat protein” value under setting [4] was 26.4 nM and the “apparent KD of MS2 coat protein” value (input ligand: none) was determined as 30.7 nM.
The like results for “ACAUGAGGAUCACCCAUGUAAUCAUGAUGGCUGAUGUAGAGGUAGGAUAUGAGUGGCUUUCUAUCUCAGAAGGACCAAGACUGG [Deportation 39 - Jieux - Exclusion NG 3] (Eterna round: R96, puzzle: Exclusion NG 3)” were, in that order, 29 nM, 21.6 nM and 27.3 nM.
The like results for “ACAUGAGGAUCACCCAUGUAAUCAUGAUGGCUGAUGUAGAGUCAGGAUAUGUGUGGCUUUCUAUCGCAGAAGGGACAAGACUGG [Deportation 35 - Jieux - Exclusion NG 3] (Eterna round: R96, puzzle: Exclusion NG 3)” were, in that order, 45.6 nM, 37.7 nM and 43.4 nM.
The like results for “ACAUGAGGAUCACCCAUGUACACGUAAUGGCUCAUGUAGAGUGAGGAUAUGUGAGACGAACGAGCACAGAAGGCACAAGACUGG [Deportation 11 - Jieux - Exclusion NG 3] (Eterna round: R96, puzzle: Exclusion NG 3)” were, in that order, 36.1 nM, 21.8 nM and 45.4 nM.
For “ACAUGAGGAUCACCCAUGUCCGGCUGGUCCGUUUCGGCUGUCGAGGAUAUAGUUCGGUGUCCGCGCUAGAAGGCGGGAGCUGGC [Aenatbe mod 61] (Eterna round: R96, puzzle: Exclusion NG 3)”, the “apparent KD of MS2 coat protein” value was found to be 181 nM (input ligand: FMN 200 uM), 67 nM under setting [4] and 98.5 nM (input ligand: none).
In the same order, the values of “ACAUGAGGAUCACCCAUGUCCGGCUGGUCUGUCUCGGCUGUCGAGGAUAUAGCACGGUAUCCGCGCUAGAAGGCGGGAGCCGGU [Aenatbe mod 87] (Eterna round: R96, puzzle: Exclusion NG 3)” are 216 nM, 29 nM and 42.8 nM.
As to “ACAUGAGGAUCACCCAUGUCCGGCUGGUCUGUCUCGGCUGUCGAGGAUAUAGCUCGGUAUCCGCGCUAGAAGGCGGGAGCCGGC [Aenatbe mod 90] (Eterna round: R96, puzzle: Exclusion NG 3)”, the “apparent KD of MS2 coat protein” value was 98 nM (input ligand: FMN 200 uM), 43.5 nM under setting [4] and 72.7 nM (input ligand: none).
On to “ACAUGAGGAUCACCCAUGUGAAAAGAAUGGCUGACACAGAGAUAGGAUAUGCGUGCAUAUCUAACGCAGAAGGGUCAUGACUGG [Deportation 81 - Jieux - Exclusion NG 3] (Eterna round: R96, puzzle: Exclusion NG 3)”, for which the “apparent KD of MS2 coat protein” value (input ligand: FMN 200 uM) came to 25.9 nM, the “apparent KD of MS2 coat protein” value under setting [4] amounted to 22.4 nM and the “apparent KD of MS2 coat protein” value (input ligand: none) was 28.3 nM.
In the case of “ACAUGAGGAUCACCCAUGUGAAAGAAAUGGCUGACUUUGAGCUAGGAUAUUUGUGCAUAUCAAACGAAGAAGGAGCAUUACUGG [Deportation 100 - Jieux - Exclusion NG 3] (Eterna round: R96, puzzle: Exclusion NG 3)”, the “apparent KD of MS2 coat protein” value under setting [4] stood at 16.4 nM.
Regarding “ACAUGAGGAUCACCCAUGUGACCACAAUGGCUGAUGUAAAGACAGGAUAUGUGUGAAUAUCUAACACAGAAGGGUCUUGACUGG [Deportation 57 - Jieux - Exclusion NG 3] (Eterna round: R96, puzzle: Exclusion NG 3)”, the “apparent KD of MS2 coat protein” value (input ligand: FMN 200 uM) came out at 53 nM, the “apparent KD of MS2 coat protein” value under setting [4] was found to be 47.1 nM and the “apparent KD of MS2 coat protein” value (input ligand: none) was determined as 47.8 nM.
The like results for “ACAUGAGGAUCACCCAUGUGACCACAAUGGCUGAUGUAACAACAGGAUAUGUGUGAAUAUCUAACACAGAAGGGUUUUGACUGG [Deportation 58 - Jieux - Exclusion NG 3] (Eterna round: R96, puzzle: Exclusion NG 3)” were, in that order, 76.9 nM, 59.3 nM and 75.9 nM.
In the case of “ACAUGAGGAUCACCCAUGUGCACGUAAUGGCUCAUGUAGAGUGAGGAUAUGCGUGGCGAACGCGCGCAGAAGGCACAAGACUGG [Deportation 18 - Jieux - Exclusion NG 3] (Eterna round: R96, puzzle: Exclusion NG 3)”, the “apparent KD of MS2 coat protein” value came to 129 nM (input ligand: FMN 200 uM), 88.8 nM under setting [4] and 99.7 nM (input ligand: none).
Regarding “ACAUGAGGAUCACCCAUGUUAGGUUGGUUUUCUCCGGCUGUUGAGGAUAUAGUCCGGUAUCCGCGCUAGAAGGUGAGGGUUGGC [Aenatbe mod 9] (Eterna round: R96, puzzle: Exclusion NG 3)”, the “apparent KD of MS2 coat protein” value reads like this: (input ligand: FMN 200 uM) 61.9 nM; under setting [4], 60 nM; (input ligand: none) 64.9 nM.
